Where two headings read alike, the source gives them in different places.
What was measured:
[1] = target: T1, recombinant human CSF-1 (human) (UniProt P09603); assay: cell-based or functional assay
T1 sequence (looked up): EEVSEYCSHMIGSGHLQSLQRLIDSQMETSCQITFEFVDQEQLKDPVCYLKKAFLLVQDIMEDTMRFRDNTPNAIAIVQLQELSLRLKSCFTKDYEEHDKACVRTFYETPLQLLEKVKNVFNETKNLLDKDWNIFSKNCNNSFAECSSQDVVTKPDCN

[2] = target: T1, recombinant human CSF-1 (human); assay: cell-based or functional assay; remark: listed apart in the source

Chain of c-fms-Fc, human c-fms extracellular domain (residues 1-512) with a C-terminal human Fc domain (P07333 20-512): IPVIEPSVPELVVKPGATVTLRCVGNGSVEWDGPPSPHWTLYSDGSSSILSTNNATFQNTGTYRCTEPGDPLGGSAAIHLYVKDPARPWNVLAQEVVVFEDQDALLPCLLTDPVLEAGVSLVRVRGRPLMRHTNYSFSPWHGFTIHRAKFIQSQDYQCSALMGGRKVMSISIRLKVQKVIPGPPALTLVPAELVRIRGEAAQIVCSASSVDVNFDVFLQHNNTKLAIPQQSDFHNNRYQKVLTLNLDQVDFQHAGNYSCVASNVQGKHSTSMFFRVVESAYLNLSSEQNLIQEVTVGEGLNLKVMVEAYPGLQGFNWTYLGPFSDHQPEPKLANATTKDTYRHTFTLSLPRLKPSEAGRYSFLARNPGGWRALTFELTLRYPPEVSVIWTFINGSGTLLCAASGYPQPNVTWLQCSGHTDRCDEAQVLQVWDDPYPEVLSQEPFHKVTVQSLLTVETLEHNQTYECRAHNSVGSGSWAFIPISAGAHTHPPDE

c-fms-Fc, human c-fms extracellular domain (residues 1-512) with a C-terminal human Fc domain (from UniProt P07333 20-512) (Fc fusion)
AML-5 bioassay IC50 [1]: 0.034 µg/mL | Cynomolgus bone marrow bioassay IC50 [1]: 0.1 µg/mL | Human CD14+ monocytes bioassay IC50 [1]: 0.09 µg/mL | AML-5 bioassay IC50 [2]: 0.21 nM | Cynomolgus bone marrow bioassay IC50 [2]: 0.617 nM | Human CD14+ monocytes bioassay IC50 [2]: 0.556 nM

Source: patent publication US20090155164A1
